Ends that are not written are not given here. * marks the point of attachment. FITC = O=C1OC2(c3ccc(O)cc3Oc3cc(O)ccc32)c2ccc(NC(=S)*)cc21; Ahx = NCCCCCC(=O)O
Biological target: T1, EGFR on A431 and MDA MB 468 cells (human (endogenous in A431 and MDA MB …, UniProt P00533 25-1210))
T1 construct: also called Epidermal growth factor receptor; EGFR overexpressing cells; source: endogenous, overexpressed on A431 and MDA MB 468 cells
Assay: flow cytometry on cells; A431, MDA MB 468 and HEK 293 cells; FITC labeled peptides 10 µM in HBSS, 37 °C, 15 minutes; washed, trypsinized; mean fluorescence intensity
Settings: one partner purified

fold fluorescence against the other peptides: 1.5 fold
B1: FITC conjugated Pep11 (designed binder)
peptide: {FITC-Ahx}-WSGENGPGFYDYEA
notes: Pep11, FITC labelled; also called FITC-Pep11; source: synthetic peptide (solid phase, Fmoc chemistry, HPLC purified)
